Columns and labels:
[1] = biological target: T1, CM1; assay: cell-based or functional assay
T1 sequence (peptide): MVPSALTASG

[2] = biological target: T2, CM4; assay: cell-based or functional assay
T2 sequence (peptide): MVVLALTASG

Sequence of recombinant human MMP2 (P08253 110-660 limits assumed): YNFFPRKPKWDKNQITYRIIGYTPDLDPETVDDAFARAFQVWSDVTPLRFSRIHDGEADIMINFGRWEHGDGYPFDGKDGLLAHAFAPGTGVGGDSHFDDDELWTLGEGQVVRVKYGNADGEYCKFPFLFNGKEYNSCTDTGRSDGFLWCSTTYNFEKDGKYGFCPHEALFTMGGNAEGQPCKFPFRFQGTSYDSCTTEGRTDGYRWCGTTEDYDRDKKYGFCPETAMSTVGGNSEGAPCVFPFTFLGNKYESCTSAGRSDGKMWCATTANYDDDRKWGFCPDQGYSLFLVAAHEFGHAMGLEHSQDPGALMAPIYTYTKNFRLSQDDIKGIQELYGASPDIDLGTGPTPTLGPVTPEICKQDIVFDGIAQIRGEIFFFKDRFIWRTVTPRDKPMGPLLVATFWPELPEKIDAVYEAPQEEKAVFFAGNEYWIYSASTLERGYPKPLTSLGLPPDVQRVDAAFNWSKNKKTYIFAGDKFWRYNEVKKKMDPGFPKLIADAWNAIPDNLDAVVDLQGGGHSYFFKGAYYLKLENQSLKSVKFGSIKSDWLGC

recombinant human MMP2 (from UniProt P08253 110-660) (enzyme)
Cleavage efficiency (EC50) [1]: 0.006 µg/mL | Cleavage efficiency (EC50) [2]: 0.15 µg/mL

recombinant human MMP9 (from UniProt P14780 107-707) (enzyme)
Cleavage efficiency (EC50) [1]: 0.05 µg/mL | Cleavage efficiency (EC50) [2]: 0.2 µg/mL
